Reference: patent US20250353926A1 (ENLAZA THERAPEUTICS, published 2025)

How the values were obtained:
[1] = target: T1, PSMA expressed on target cells (PC3pip cells, high density; 22Rv1 cells, low density) (UniProt Q04609 1-750, limits assumed); assay: cell-based or functional assay
[2] = target: T2, biotin-labeled CD16a (Acro P/N CDA-H82E8) (human, UniProt P08637 17-208, biotin-labeled (site not stated)); assay: BLI, biotin-labeled CD16a on streptavidin biosensors, pH 7.4
T2 construct: also called recombinant human CD16a; immobilized CD16a
T2 sequence (P08637 17-208 limits assumed): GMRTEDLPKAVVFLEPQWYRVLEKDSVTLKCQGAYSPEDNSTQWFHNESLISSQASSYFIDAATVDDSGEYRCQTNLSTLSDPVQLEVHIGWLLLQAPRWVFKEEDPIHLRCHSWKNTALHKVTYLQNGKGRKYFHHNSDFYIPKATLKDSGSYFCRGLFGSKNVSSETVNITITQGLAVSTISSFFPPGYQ

[3] = target: T3, Biotinylated his-tagged human PSMA (human, UniProt Q04609 44-750, limits assumed, biotinylated (site not stated)); assay: BLI, biotinylated his-tagged human PSMA on streptavidin sensors, pH 7.4; covalent crosslinking; pH 7.4; apparent KD under covalent crosslinking
T3 construct: also called immobilized PSMA; not shown: his tag
T3 sequence (Q04609 44-750 limits assumed): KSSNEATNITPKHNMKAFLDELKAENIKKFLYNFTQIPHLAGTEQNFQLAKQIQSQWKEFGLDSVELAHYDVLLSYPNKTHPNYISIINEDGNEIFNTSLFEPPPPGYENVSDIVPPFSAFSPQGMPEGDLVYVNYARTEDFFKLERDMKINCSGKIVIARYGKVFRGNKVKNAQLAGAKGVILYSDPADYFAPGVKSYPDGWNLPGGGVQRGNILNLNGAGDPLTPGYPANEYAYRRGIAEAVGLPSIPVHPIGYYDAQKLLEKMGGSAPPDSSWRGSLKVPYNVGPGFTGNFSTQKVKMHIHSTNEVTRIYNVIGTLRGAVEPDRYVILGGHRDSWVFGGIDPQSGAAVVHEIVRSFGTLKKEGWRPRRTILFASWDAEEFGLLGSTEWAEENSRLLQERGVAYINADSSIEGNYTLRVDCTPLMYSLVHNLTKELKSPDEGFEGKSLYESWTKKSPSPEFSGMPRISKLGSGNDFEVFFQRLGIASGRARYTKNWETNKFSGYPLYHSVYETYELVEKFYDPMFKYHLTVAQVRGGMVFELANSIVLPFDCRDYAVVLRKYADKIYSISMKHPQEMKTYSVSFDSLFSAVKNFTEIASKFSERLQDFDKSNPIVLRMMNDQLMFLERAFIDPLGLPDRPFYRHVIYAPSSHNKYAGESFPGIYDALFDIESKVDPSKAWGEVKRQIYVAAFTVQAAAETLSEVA

[4] = target: T1, PSMA expressed on target cells (PC3pip …); assay: cell-based or functional assay; remark: listed apart in the source
[5] = target: T1, PSMA expressed on target cells (PC3pip …); assay: cell-based or functional assay; remark: listed apart in the source
[6] = target: T1, PSMA expressed on target cells (PC3pip …); assay: cell-based or functional assay; remark: listed apart in the source
[7] = target: T1, PSMA expressed on target cells (PC3pip …); assay: cell-based or functional assay; remark: listed apart in the source
[8] = target: T1, PSMA expressed on target cells (PC3pip …); assay: cell-based or functional assay; remark: listed apart in the source
[9] = target: T3, Biotinylated his-tagged human PSMA; assay: BLI, biotinylated his-tagged human PSMA on streptavidin sensors, pH 7.4; covalent crosslinking
[10] = target: T3, Biotinylated his-tagged human PSMA; assay: BLI, biotinylated his-tagged human PSMA on streptavidin sensors, pH 5.7
[11] = target: T3, Biotinylated his-tagged human PSMA; assay: BLI, biotinylated his-tagged human PSMA on streptavidin sensors, pH 7.4; non 1:1 binding (covalent crosslinking); pH 7.4; non 1:1 binding (crosslinking to PSMA)
[12] = target: T1, PSMA expressed on target cells (PC3pip …); assay: cell-based or functional assay; remark: listed apart in the source

T1 sequence (Q04609 whole entry): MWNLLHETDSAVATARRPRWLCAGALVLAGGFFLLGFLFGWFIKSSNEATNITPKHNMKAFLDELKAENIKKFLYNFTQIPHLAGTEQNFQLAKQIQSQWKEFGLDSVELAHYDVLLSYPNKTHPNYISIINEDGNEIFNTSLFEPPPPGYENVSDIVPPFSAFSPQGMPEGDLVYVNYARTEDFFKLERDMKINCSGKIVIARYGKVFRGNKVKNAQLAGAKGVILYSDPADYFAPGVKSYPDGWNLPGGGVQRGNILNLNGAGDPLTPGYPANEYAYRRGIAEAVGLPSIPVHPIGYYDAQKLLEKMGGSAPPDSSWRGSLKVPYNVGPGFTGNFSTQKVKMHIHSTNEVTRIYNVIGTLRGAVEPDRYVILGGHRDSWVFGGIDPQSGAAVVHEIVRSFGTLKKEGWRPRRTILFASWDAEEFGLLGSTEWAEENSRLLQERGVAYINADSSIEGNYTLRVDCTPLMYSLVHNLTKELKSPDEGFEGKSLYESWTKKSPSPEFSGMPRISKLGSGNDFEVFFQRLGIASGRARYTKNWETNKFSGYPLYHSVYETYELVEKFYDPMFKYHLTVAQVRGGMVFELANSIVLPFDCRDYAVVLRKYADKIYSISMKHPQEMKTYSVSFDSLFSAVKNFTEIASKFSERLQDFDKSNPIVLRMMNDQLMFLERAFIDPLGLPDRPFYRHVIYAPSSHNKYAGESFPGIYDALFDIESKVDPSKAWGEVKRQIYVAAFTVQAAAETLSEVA

B1: C22 (C37-L3-C35) (bispecific antibody)
chain: EVQLVESGGGLVQPGESLTLSCVVAGSIFSFAMSWYRQAPGKERELVARIGSDDRVTYADSVKGRFTISRDNIKRTAGLQMNSLKPEDTAVYYCNAQTDLRDWTVREYWGQGTQVTVSSGGGGSGGGGSGGGGSGGGGSQVQLQESGGGSVEAGGSLRLSCARSGWPYSTYSMNWFRQAPGKEREAVAGISSTMSGIIFAESKAGQFTISQDNAKNTVYLQMNNLKPEDTAIYYCAARRXFSLSSSSDDFDYWGQGTQVTVSSAAAYPYDVPDYGSSPSTPPTPSPSTPPHHHHHH
modifications: FSY (fluorosulfonyltyrosine) at the position printed X in SEQ ID NO: 37 (position 101 of the anti-PSMA sdAb domain)
notes: anti-CD16a sdAb C37 - 4x(G4S) - anti-PSMA sdAb-FSY C35; entry holds HA tag, SP tag and His6; also called C22 (FSY); FSY-containing bispecific construct
Question: B1 was tested. Which “fold potency against C25; NK cell-mediated killing of PC3pip cells, 5 hr incubation and washout” value [1] did it give?
Answer: 140 fold

Question: And the “fold potency against C25; NK cell-mediated killing of PC3pip cells, test article present throughout” value [1]?
Answer: 106 fold

Question: And the Kd [2]?
Answer: 1.48 nM

Question: And the koff [2]?
Answer: 8.69e-05 s⁻¹

Question: And the kon [2]?
Answer: 58800 M⁻¹ s⁻¹

Question: And the Kd [3]?
Answer: < 1 nM

Question: What about the “EC50 [nM]; NK cell-mediated killing of PC3pip cells, 5 h washout, 20 h incubation” value [4] of the same binder?
Answer: 0.188 nM

Question: And the “EC50 [nM]; primary human NK cell-mediated killing of PC3pip cells, no washout, 20 h incubation” value [5]?
Answer: 0.066 nM

Question: What about the “EC50; ADCC reporter assay, 22Rv1 4 h washout, 24 h endpoint” value [6] of the same binder?
Answer: 3.19 nM

Question: What about the “EC50; ADCC luciferase reporter assay (Jurkat CD16a V158 reporter cells), PC3pip 24 h continuous” value [7] of the same binder?
Answer: 0.219 nM

Question: And the “EC50; ADCC reporter assay, 22Rv1 24 h continual” value [8]?
Answer: 0.54 nM

Question: And the koff [9]?
Answer: < 1e-07 s⁻¹

Question: What about the Kd [10] of the same binder?
Answer: ≤ 1140 nM

Question: What about the koff [10] of the same binder?
Answer: 0.0465 s⁻¹

Question: What about the kon [10] of the same binder?
Answer: 40700 M⁻¹ s⁻¹

Question: And the kon [11]?
Answer: 12800 M⁻¹ s⁻¹

Question: What about the “EC50; ADCC reporter assay, PC3pip 4 h washout, 24 h endpoint” value [12] of the same binder?
Answer: 0.667 nM
